Data taken from patent US20260062487A1 (GRITSTONE BIO, published 2026).

Columns and labels:
[1] = biological target: T1, biotinylated refolded G2-pHLA (A*01:01/b2m/…) (human, biotinylated at the C-terminal AviTag); test: BLI (ForteBio Octet HTX), biotinylated G2-pHLA captured on streptavidin SAX biosensor, antibody in solution, 1:1 kinetic model
T1 construct: Soluble complex caught on streptavidin sensors or MSD plates; also called G2-peptide A*01:01/b2m complex; WT
From the text: (§1) The biosensors were then dipped in assay buffer for a baseline. […] The biosensors were finally dipped into wells containing assay buffer to measure the dissociation rate for another 50 seconds. Referencing was completed by having a biosensor with no immobilized ligand dipped into analyte. Kinetic data was processed with Octet™ software using a 1:1 kinetic model with errors within 10%, X² below 3, and R² above 0.9.

[2] = biological target: T1, biotinylated refolded G2-pHLA …; test: BLI (ForteBio Octet HTX), biotinylated G2-pHLA captured on streptavidin SAX biosensor, antibody in solution, 1:1 Fit
From the text: as §1

[3] = biological target: T1, biotinylated refolded G2-pHLA …; test: BLI (ForteBio Octet HTX), biotinylated G2-pHLA captured on streptavidin SAX biosensor, antibody in solution, 1:2 Fit
[4] = biological target: T2, HLA-PEPTIDE target A*01:01_… (G2) on cells (human); test: flow cytometry, A375 cells engineered to express the G2 peptide
T2 construct: whole, on cells; also recovered from cell lysates in the IP-MS experiment; also called G2 pHLA; G2 target
Method: Tumor cells engineered to express target peptide were harvested, washed in PBS, and stained with eBioscience Fixable Viability Dye eFluor 450 for 15 minutes at room temperature. Following another wash in PBS+1-2% FBS, cells were resuspended with the indicated molecules at varying concentrations and incubated for 1 hour at 4° C. After another wash, PE-conjugated goat anti-human IgG secondary antibody (Jackson ImmunoResearch) was added at 1:100 to 1:200 for 30 minutes at 4° C. After washing in PBS+1-2% FBS, cells were resuspended in PBS+1-2% FBS and analyzed by flow cytometry. Flow cytometric analysis was performed on the Attune NxT Flow Cytometer (ThermoFisher) using the Attune NxT Software. Data was analyzed using FlowJo.

[5] = biological target: T1, biotinylated refolded G2-pHLA …; test: BLI (Octet), biotinylated pHLA on streptavidin sensor, bivalent antibody as analyte (apparent affinity)
From the text: as §1

CD3 on CD3+ Jurkat cells = biological target: T3, CD3 on CD3+ Jurkat cells (human, UniProt P07766 23-207); test: flow cytometry, anti IgG PE, CD3+ Jurkat cells
T3 construct: whole, on cells
T3 sequence (P07766 23-207): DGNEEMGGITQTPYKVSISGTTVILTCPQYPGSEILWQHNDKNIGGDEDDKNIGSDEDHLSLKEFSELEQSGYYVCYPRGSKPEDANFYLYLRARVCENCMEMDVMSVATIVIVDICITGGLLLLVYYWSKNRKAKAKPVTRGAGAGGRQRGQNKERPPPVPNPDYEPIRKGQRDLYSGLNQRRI

[6] = biological target: T4, G5 pHLA (HLA-B*35:01 with …) on cells (human); test: flow cytometry, anti IgG PE, LN229 G5 9mer cells (4500 copies per cell)
T4 construct: whole, on cells

[7] = biological target: T2, HLA-PEPTIDE target A*01:01_… (G2) on …; test: flow cytometry, A375 cells expressing the CT83 pHLA 9-mer
Method: (§2) A375 transduced with luciferase alone served as the negative control. […] Binding was determined by flow cytometery using an anti IgG-PE antibody for detection.

[8] = biological target: T2, HLA-PEPTIDE target A*01:01_… (G2) on …; test: flow cytometry, anti IgG PE, A375 9mer cells (1e6 copies per cell)
Method: as §2

B1: Format 4-G2(1H11) hOKT3a (non-shortened linkers, without DSB) (bispecific antibody, human IgG1, kappa, N297Q)
chain: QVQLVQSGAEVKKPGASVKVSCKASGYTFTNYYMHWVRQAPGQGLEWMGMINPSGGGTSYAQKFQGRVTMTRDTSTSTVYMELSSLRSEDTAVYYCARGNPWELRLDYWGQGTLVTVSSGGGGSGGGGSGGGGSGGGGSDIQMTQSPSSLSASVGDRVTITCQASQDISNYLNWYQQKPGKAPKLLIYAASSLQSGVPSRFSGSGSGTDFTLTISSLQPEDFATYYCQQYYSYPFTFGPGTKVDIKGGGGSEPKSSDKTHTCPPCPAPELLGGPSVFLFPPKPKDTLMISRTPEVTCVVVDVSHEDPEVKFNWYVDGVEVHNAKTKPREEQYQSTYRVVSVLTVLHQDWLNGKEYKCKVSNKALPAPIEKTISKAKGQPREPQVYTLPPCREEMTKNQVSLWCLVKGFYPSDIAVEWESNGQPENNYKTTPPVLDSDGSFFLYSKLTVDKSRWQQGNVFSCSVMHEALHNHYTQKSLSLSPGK
heavy: QVQLVQSGAEVKKPGASVKVSCKASGYTFTNYYMHWVRQAPGQGLEWMGMINPSGGGTSYAQKFQGRVTMTRDTSTSTVYMELSSLRSEDTAVYYCARGNPWELRLDYWGQGTLVTVSSGGGGSGGGGSGGGGSGGGGSDIQMTQSPSSLSASVGDRVTITCQASQDISNYLNWYQQKPGKAPKLLIYAASSLQSGVPSRFSGSGSGTDFTLTISSLQPEDFATYYCQQYYSYPFTFGPGTKVDIKGGGGSGGGGSQVQLVQSGAEVKKPGASVKVSCKASGYTFTRYTMHWVRQAPGQGLEWMGYINPSRGYTNYNQKFKDRVTLTTDKSSSTAYMELSSLRSEDTAVYYCARYYDDHYSLDYWGQGTLVTVSSASTKGPSVFPLAPSSKSTSGGTAALGCLVKDYFPEPVTVSWNSGALTSGVHTFPAVLQSSGLYSLSSVVTVPSSSLGTQTYICNVNHKPSNTKVDKRVEPKSCDKTHTCPPCPAPELLGGPSVFLFPPKPKDTLMISRTPEVTCVVVDVSHEDPEVKFNWYVDGVEVHNAKTKPREEQYQSTYRVVSVLTVLHQDWLNGKEYKCKVSNKALPAPIEKTISKAKGQPREPQVCTLPPSREEMTKNQVSLSCAVKGFYPSDIAVEWESNGQPENNYKTTPPVLDSDGSFFLVSKLTVDKSRWQQGNVFSCSVMHEALHNRFTQKSLSLSPGK
light: DIQMTQSPSSLSASVGDRVTITCSASSSVSYMNWYQQKPGKAPKRLIYDTSKLASGVPSRFSGSGSGTDFTLTISSLQPEDFATYYCQQWSSNPFTFGQGTKLEIKRTVAAPSVFIFPPSDEQLKSGTASVVCLLNNFYPREAKVQWKVDNALQSGNSQESVTEQDSKDSTYSLSSTLTLSKADYEKHKVYACEVTHQGLSSPVTKSFNRGEC
notes: In solution a mixture of 2xscFv and diabody conformations; also called G2 Format 4 bispecific; G2(1H11)hOKT3a 2xscFv
B1 was tested, and the koff [1] was 0.00397 s⁻¹, the Kd [2] was 30.3 nM and the koff [2] was 0.0277 s⁻¹. The kon [2] was 913000 M⁻¹ s⁻¹, the Kd [3] was 1640 nM and the koff [3] was 0.324 s⁻¹. For the same binder, the kon [3] was 198000 M⁻¹ s⁻¹, the EC50 [4] was 9.8 nM and the Kd [5] was 18 nM.

B2: 41-G5(1C12) UCHT1v9 diabody (bispecific antibody, human IgG1, kappa)
chain: QVQLVQSGAEVKKPGSSVKVSCKASGGTFSNFGVSWLRQAPGQGLEWMGGIIPILGTANYAQKFQGRVTITADESTSTAYMELSSLRSEDTAVYYCATPTNSGYYGPYYYYGMDVWGQGTTVTVSSGGGGSGGGGSDIQMTQSPSSLSASVGDRVTITCRASQSISSWLAWYQQKPGKAPKLLIYAASTLQSGVPSRFSGSGSGTDFTLTISSLQPEDFATYYCQQSYSIPLTFGGGTKVEIKGGGGSEPKSSDKTHTCPPCPAPEFEGGPSVFLFPPKPKDTLMISRTPEVTCVVVDVSHEDPEVKFNWYVDGVEVHNAKTKPREEQYNSTYRVVSVLTVLHQDWLNGKEYKCKVSNKALPASIEKTISKAKGQPREPQVYTLPPCREEMTKNQVSLWCLVKGFYPSDIAVEWESNGQPENNYKTTPPVLDSDGSFFLYSKLTVDKSRWQQGNVFSCSVMHEALHNHYTQKSLSLSPGK
heavy: QVQLVQSGAEVKKPGSSVKVSCKASGGTFSNFGVSWLRQAPGQGLEWMGGIIPILGTANYAQKFQGRVTITADESTSTAYMELSSLRSEDTAVYYCATPTNSGYYGPYYYYGMDVWGQGTTVTVSSGGGGSGGGGSDIQMTQSPSSLSASVGDRVTITCRASQSISSWLAWYQQKPGKAPKLLIYAASTLQSGVPSRFSGSGSGTDFTLTISSLQPEDFATYYCQQSYSIPLTFGGGTKVEIKGGGGSGGGGSEVQLVESGGGLVQPGGSLRLSCAASGYSFTGYTMNWVRQAPGKGLEWVALINPYKGVSTYNQKFKDRFTISVDKSKNTAYLQMNSLRAEDTAVYYCARSGYYGDSDWYFDVWGQGTLVTVSSASTKGPSVFPLAPSSKSTSGGTAALGCLVKDYFPEPVTVSWNSGALTSGVHTFPAVLQSSGLYSLSSVVTVPSSSLGTQTYICNVNHKPSNTKVDKRVEPKSCDKTHTCPPCPAPEFEGGPSVFLFPPKPKDTLMISRTPEVTCVVVDVSHEDPEVKFNWYVDGVEVHNAKTKPREEQYNSTYRVVSVLTVLHQDWLNGKEYKCKVSNKALPASIEKTISKAKGQPREPQVCTLPPSREEMTKNQVSLSCAVKGFYPSDIAVEWESNGQPENNYKTTPPVLDSDGSFFLVSKLTVDKSRWQQGNVFSCSVMHEALHNRFTQKSLSLSPGK
light: not shown
notes: also called 41-G5(1C12) hUCHT1v9; 41-G5 UCHT1v9
With B2 the “EC50 (read off the curve)” value (CD3 on CD3+ Jurkat cells) was about 4 nM and the “EC50 (read off the curve)” value [6] was about 4 nM.

B3: 43-E07 UCHT1v9 (Format 43 31E07-CD3 bispecific antibody) (bispecific antibody, human IgG1, kappa)
chain: EVQLVESGGGLVQPGGSLRLSCAASGYSFTGYTMNWVRQAPGKGLEWVALINPYKGVSTYNQKFKDRFTISVDKSKNTAYLQMNSLRAEDTAVYYCARSGYYGDSDWYFDVWGQGTLVTVSSGGGGSGGGGSDIQMTQSPSSLSASVGDRVTITCRASQEIRRWLAWYQQKPGKAPKLLIYAASNLQSGVPSRFSGSGSGTDFTLTISSLQPEDFATYYCQQSYSTPYTFGQGTKLEIKGGGGSEPKSSDKTHTCPPCPAPEFEGGPSVFLFPPKPKDTLMISRTPEVTCVVVDVSHEDPEVKFNWYVDGVEVHNAKTKPREEQYNSTYRVVSVLTVLHQDWLNGKEYKCKVSNKALPASIEKTISKAKGQPREPQVYTLPPCREEMTKNQVSLWCLVKGFYPSDIAVEWESNGQPENNYKTTPPVLDSDGSFFLYSKLTVDKSRWQQGNVFSCSVMHEALHNHYTQKSLSLSPGK
heavy: QVQLVQSGAEVKKPGASVKVSCKASGFTFTNYLIHWVRQAPGQGLEWMGWINPNSGGTNYAQRLQGRVTMTRDTSTSTVYMELSSLRSEDTAVYYCARDYGAGNDYWGQGTLVTVSSGGGGSGGGGSDIQMTQSPSSLSASVGDRVTITCRASQDIRNYLNWYQQKPGKAPKLLIYYTSRLESGVPSRFSGSGSGTDYTLTISSLQPEDFATYYCQQGNTLPWTFGQGTKVEIKGGGGSGGGGSQVQLVQSGAEVKKPGASVKVSCKASGFTFTNYLIHWVRQAPGQGLEWMGWINPNSGGTNYAQRLQGRVTMTRDTSTSTVYMELSSLRSEDTAVYYCARDYGAGNDYWGQGTLVTVSSASTKGPSVFPLAPSSKSTSGGTAALGCLVKDYFPEPVTVSWNSGALTSGVHTFPAVLQSSGLYSLSSVVTVPSSSLGTQTYICNVNHKPSNTKVDKRVEPKSCDKTHTCPPCPAPEFEGGPSVFLFPPKPKDTLMISRTPEVTCVVVDVSHEDPEVKFNWYVDGVEVHNAKTKPREEQYNSTYRVVSVLTVLHQDWLNGKEYKCKVSNKALPASIEKTISKAKGQPREPQVCTLPPSREEMTKNQVSLSCAVKGFYPSDIAVEWESNGQPENNYKTTPPVLDSDGSFFLVSKLTVDKSRWQQGNVFSCSVMHEALHNRFTQKSLSLSPGK
light: DIQMTQSPSSLSASVGDRVTITCRASQEIRRWLAWYQQKPGKAPKLLIYAASNLQSGVPSRFSGSGSGTDFTLTISSLQPEDFATYYCQQSYSTPYTFGQGTKLEIKRTVAAPSVFIFPPSDEQLKSGTASVVCLLNNFYPREAKVQWKVDNALQSGNSQESVTEQDSKDSTYSLSSTLTLSKADYEKHKVYACEVTHQGLSSPVTKSFNRGEC
notes: also called 43-E07 hUCHT1v9; 43-31E07-GGGGS-UCHT1v9
With B3 the “fold increase in binding against 41-E07 UCHT1v9” value [7] was about 10 fold and the “EC50 (read off the curve)” value [8] was about 0.3 nM.
